The results in this text go back to US20130012693.

Data set [1] has as its target beta-NGF (Homo sapiens) (UniProt P01138). Nature of the data set: cell_activity. Conditions: PC12 neurite growth, 0.38 nM NGF.
Data set [2] has the same target. The experiment in a line: filter. The settings on record: BndU at Z' (n) positions [n positions 30,37,38,43,44,45,51,52,54 = modified dU]; SB17T-0.002, 37 C; Zorbax resin capture.

beta-NGF (Homo sapiens), sequence (P01138 122-241): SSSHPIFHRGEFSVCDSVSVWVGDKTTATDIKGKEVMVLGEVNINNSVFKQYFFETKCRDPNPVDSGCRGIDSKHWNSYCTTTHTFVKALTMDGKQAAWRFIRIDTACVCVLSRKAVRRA

In general, IC50 refers to the concentration needed to halve the response being measured. A low value points to greater potency in that assay. The sequence “CATGAGGACTTGGGGTTTAGCCGTTGTG [2426-66-50]” had an IC50 with beta-NGF (Homo sapiens) [1] (BndU at Z' (n) positions, 3'-idT in cell assays [n positions 3,10,11,16,17,18,24,25,27 = modified dU]) of 1 nM. This counts as single-digit nanomolar.

For orientation: Kd means the constant that tells how readily two partners part at equilibrium. Lower therefore signals higher affinity. The sequence “GAGTGACCGTCTGCCTGCAGCGGGACACATGAGGACTTGGGGTTTAGCCGTTGTGGCACAGAGAAGAAACAAGACC [2426-66]” displayed an IC50 in the data set with beta-NGF (Homo sapiens) [1] (BndU at Z' (n) positions [n positions 30,37,38,43,44,45,51,52,54 = modified dU], 3'-idT) of 2 nM. Besides, the Kd with beta-NGF (Homo sapiens) [2] amounted to 5 nM.
